Target: the molecule itself
Assay: crystal structure; co-crystallisation by hanging-drop vapour diffusion at 20 °C; MOA variant 5 mg/ml pre-mixed with the trisaccharide Galα1,3(Fucα1,2)Gal (1:20) and the heptapeptide at 1:10 MOA:peptide molar ratio; crystals grew over 2-4 weeks

B1: Marasmius oreades agglutinin (MOA) variant C215A (enzyme)
chain: MSLRRGIYHIENAGVPSAIDLKDGSSSDGTPIVGWQFTPDTINWHQLWLAEPIPNVADTFTLCNLFSGTYMDLYNGSSEAGTAVNGWQGTAFTTNPHQLWTIKKSSDGTSYKIQNYGSKTFVDLVNGDSSDGAKIAGWTGTWDEGNPHQKWYFNRMSVSSAEAQAAIARNPHIHGTYRGYILDGEYLVLPNATFTQIWKDSGLPGSKWREQIYDADDFAIAMKAAVGKWGADSWKANGFAIFCGVMLGVNKAGDAAHAYNFTLTKDHADIVFFEPQNGGYLNDIGYDSYMAFY
notes: Marasmius oreades agglutinin (MOA), from the cDNA for wild-type MOA in vector MOApT7-LO; the final model holds residues 2-293, no density for the first methionine; One protomer in the asymmetric unit; the second subunit of the dimer comes from crystal symmetry; Construct described in Cordara et al. (2011); also called MOA C215A; MOA-C215A
B1: binds.

B2: Marasmius oreades agglutinin (MOA) variant C215A/H257A (enzyme)
chain: MSLRRGIYHIENAGVPSAIDLKDGSSSDGTPIVGWQFTPDTINWHQLWLAEPIPNVADTFTLCNLFSGTYMDLYNGSSEAGTAVNGWQGTAFTTNPHQLWTIKKSSDGTSYKIQNYGSKTFVDLVNGDSSDGAKIAGWTGTWDEGNPHQKWYFNRMSVSSAEAQAAIARNPHIHGTYRGYILDGEYLVLPNATFTQIWKDSGLPGSKWREQIYDADDFAIAMKAAVGKWGADSWKANGFAIFCGVMLGVNKAGDAAAAYNFTLTKDHADIVFFEPQNGGYLNDIGYDSYMAFY
notes: Marasmius oreades agglutinin (MOA), from the cDNA for wild-type MOA in vector MOApT7-LO; the final model holds residues 2-293, no density for the first methionine; also called MOA C215A/H257A; MOA-C215A/H257A
B2: binds.

— PMC8244254 (Current Research in Structural Biology, 2020)
